B1: aptamer a (ssDNA)
DNA: AGCAGCACAGAGGTCAGATGTCTTTCATACCGAGGTTGATCCAGTAGTATTCTTATCTAATTTGTTTTGTTCGTATGTGCCCTATGCGTGCTACCGTGAA
B2: aptamer b (ssDNA)
DNA: AGCAGCACAGAGGTCAGATGTGGTCTTGTCTTTCATTCCAGGTGGCGAGTCAAATCGATACTGATCCGCTGACACAGGATCCTATGCGTGCTACCGTGAA
B3: aptamer c (ssDNA)
DNA: AGCAGCACAGAGGTCAGATGCTTGAGTGTCATGGACGTTCCGGTCTTGGGCGGGATATTTGTTTGTTTTCTGCCTATGTTCCTATGCGTGCTACCGTGAA
B4: aptamer d (ssDNA)
DNA: AGCAGCACAGAGGTCAGATGTCAGATGGCCGGACTCAGGCACTAGACCACTATGCTTCCGTTGCCATTCATCGGCACGTCCTATGCGTGCTACCGTGAA

Tests used:
[1] = target: T1, Botulinum neurotoxin type A light chain (BoNT/A-rLc) (UniProt P0DPI1 P0DPI1:2-448); experiment: SPR; conditions: tags: List Biological Laboratories; coupled via amines to Dynabeads M-270 carboxylic acid for selection and bead assays
[2] = target: T1, Botulinum neurotoxin type A light chain …; experiment: SPR; 20 mM HEPES, 150 mM NaCl, 2 mM KCl, 2 mM MgCl2, 2 mM CaCl2, pH 7.4; […]; conditions: tags: List Biological Laboratories; coupled via amines to Dynabeads M-270 carboxylic acid for selection and bead assays

Binder | Kd [1] [nM] | Kd [2] [nM]
B1 | 65 | 
B2 | 86 | 
B3 |  | 34
B4 | 53 | 

Source: patent publication US20090170718, “High-stringency screening of target-binding partners using a microfludic device” (published 2009)
